Measured values taken from patent US20110045008A1 (NEW YORK UNIVERSITY, published 2011).

T1: C-terminal truncated 35S-ADAMTS-18 (AD-CTD) (Homo sapiens (Human), UniProt Q8TE60 48-1064, 35S methionine)
T1 construct: also called C-terminal deficient ADAMTS-18
T1 sequence: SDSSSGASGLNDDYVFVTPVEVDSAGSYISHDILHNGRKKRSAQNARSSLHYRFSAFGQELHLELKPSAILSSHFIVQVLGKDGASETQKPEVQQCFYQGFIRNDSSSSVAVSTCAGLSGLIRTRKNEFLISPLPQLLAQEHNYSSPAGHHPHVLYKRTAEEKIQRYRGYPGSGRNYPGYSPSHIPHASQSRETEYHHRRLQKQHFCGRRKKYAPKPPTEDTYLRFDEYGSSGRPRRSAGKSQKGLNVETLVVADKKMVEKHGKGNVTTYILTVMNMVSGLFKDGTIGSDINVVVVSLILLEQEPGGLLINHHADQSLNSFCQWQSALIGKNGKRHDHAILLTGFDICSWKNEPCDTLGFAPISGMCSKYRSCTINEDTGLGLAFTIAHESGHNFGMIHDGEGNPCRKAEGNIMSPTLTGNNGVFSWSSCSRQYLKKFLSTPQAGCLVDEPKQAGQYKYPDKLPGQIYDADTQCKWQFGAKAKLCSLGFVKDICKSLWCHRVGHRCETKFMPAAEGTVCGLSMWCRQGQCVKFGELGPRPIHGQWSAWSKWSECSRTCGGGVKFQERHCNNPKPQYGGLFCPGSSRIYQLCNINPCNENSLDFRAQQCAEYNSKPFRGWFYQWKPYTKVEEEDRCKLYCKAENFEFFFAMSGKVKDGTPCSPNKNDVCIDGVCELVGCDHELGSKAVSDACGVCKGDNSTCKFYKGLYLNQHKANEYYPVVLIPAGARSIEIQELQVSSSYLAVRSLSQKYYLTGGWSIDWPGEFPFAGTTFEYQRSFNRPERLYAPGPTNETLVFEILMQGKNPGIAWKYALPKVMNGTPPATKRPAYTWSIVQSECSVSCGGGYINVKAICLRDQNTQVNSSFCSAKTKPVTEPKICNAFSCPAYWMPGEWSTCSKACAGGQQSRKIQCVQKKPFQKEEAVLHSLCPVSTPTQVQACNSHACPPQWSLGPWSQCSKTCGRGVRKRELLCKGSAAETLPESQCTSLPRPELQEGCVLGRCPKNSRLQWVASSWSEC

B1: platelet GPIIIa (integrin beta3) on platelets (receptor, human, UniProt P05106 27-788, looked up)
chain: GPNICTTRGVSSCQQCLAVSPMCAWCSDEALPLGSPRCDLKENLLKDNCAPESIEFPVSEARVLEDRPLSDKGSGDSSQVTQVSPQRIALRLRPDDSKNFSIQVRQVEDYPVDIYYLMDLSYSMKDDLWSIQNLGTKLATQMRKLTSNLRIGFGAFVDKPVSPYMYISPPEALENPCYDMKTTCLPMFGYKHVLTLTDQVTRFNEEVKKQSVSRNRDAPEGGFDAIMQATVCDEKIGWRNDASHLLVFTTDAKTHIALDGRLAGIVQPNDGQCHVGSDNHYSASTTMDYPSLGLMTEKLSQKNINLIFAVTENVVNLYQNYSELIPGTTVGVLSMDSSNVLQLIVDAYGKIRSKVELEVRDLPEELSLSFNATCLNNEVIPGLKSCMGLKIGDTVSFSIEAKVRGCPQEKEKSFTIKPVGFKDSLIVQVTFDCDCACQAQAEPNSHRCNNGNGTFECGVCRCGPGWLGSQCECSEEDYRPSQQDECSPREGQPVCSQRGECLCGQCVCHSSDFGKITGKYCECDDFSCVRYKGEMCSGHGQCSCGDCLCDSDWTGYYCNCTTRTDTCMSSNGLLCSGRGKCECGSCVCIQPGSYGDTCEKCPTCPDACTFKKECVECKKFDRGALHDENTCNRYCRDEIESVKELKDTGKDAVNCTYKNEDDCVVRFQYYEDSSGKSILYVVEEPECPKGPDILVVLLSVMGAILLIGLAALLIWKLLITIHDRKEFAKFEEERARAKWDTANNPLYKEATSTFTNITYRGT
notes: whole, on cells; On platelets GPIIIa stands in the GPIIb-IIIa complex; also called platelet GPIIIa(49-66); platelet integrin GPIIIa
B2: ADAMTS-18 C-terminal 385 amino acid fragment (AD-18F) (ligand)
chain: NETLVFEILMQGKNPGIAWKYALPKVMNGTPPATKRPAYTWSIVQSECSVSCGGGYINVKAICLRDQNTQVNSSFCSAKTKPVTEPKICNAFSCPAYWMPGEWSTCSKACAGGQQSRKIQCVQKKPFQKEEAVLHSLCPVSTPTQVQACNSHACPPQWSLGPWSQCSKTCGRGVRKRELLCKGSAAETLPESQCTSLPRPELQEGCVLGRCPKNSRLQWVASSWSECSATCGLGVRKREMKCSEKGFQGKLITFPERRCRNIKKPNLDLEETCNRRACPAHPVYNMVAGWYSLPWQQCTVTCGGGVQTRSVHCVQQGRPSSSCLLHQKPPVLRACNTNFCPAPEKREDPSCVDFFNWCHLVPQHGVCNHKFYGKQCCKSCTRKI

How the values were obtained:
[1] = biological target: T1, C-terminal truncated 35S-ADAMTS-18 …; assay: 35S-labelled protein on gel filtered platelets, overnight at 4 C
Experimental: FIGS. 14A-C show the effect of ADAMTS-18 on oxidative platelet fragmentation and binding to platelets. […] Gel-filtered platelets were treated with Biotin-peptide (bp) as well as bp+streptavidin (str) and scrambled Biotinylated ADAMTS-18 peptide (scp) to induce integrin clustering, n=6. Platelet fragmentation was assessed by FACS as described in the examples section. […] CT (control IgG), Ab (patient IgG). 18-mer biotin-peptide was incubated with an anti-Biotin Ab, 1:200 dilution (gray bars) or irrelevant IgG white bars, n=6. Oxidation was assessed. […] Ctl refers to ³⁵S ribosomal-translation of luciferase. AD-CTD refers to ³⁵S-ribosomal translation of ADAMTS-18 with absent C-terminal 157 amino acids (13% deleted). There is an absence of binding with C-terminal deficient ADAMTS-18. 18 mer refers to 10 μM non-radioactive 18 mer peptide added with the ³⁵S-ADAMTS-18 incubation. Binding with C-terminal 18 mer peptide is inhibited. The amino acid sequence for the 18-mer peptide is (SEQ ID NO: 8): […]

[2] = biological target: B1; assay: cell-based or functional assay

binding result [1]	platelet fragmentation of TFLLRN-activated platelets against platelets without prestimulation [2]	Binder
no binding	–	B1
–	~22 fold	B2
